The target in one experiment is T1, AcrB (Escherichia coli, UniProt P31224).
T1 construct: full-length AcrB with C-terminal octahistidine tag (kept); expressed in E. coli, extracted with styrene maleic acid co-polymer into SMALPs, cobalt resin purified; 110 kDa band; homotrimer (~360 kDa)
The experiment in a line: fluorescence polarization titration of R6G with AcrB SMALP. In kind it is binding. The text has this: fluorescence polarization titration of R6G with AcrB SMALP on AcrB | measure the Kd value of rhodamine 6G binding.
(Fluorescence polarisation rises when a labelled molecule tumbles more slowly, as on binding a larger partner.)

Experiment [1] concerns the target Escherichia coli multidrug transporter AcrB bearing a C-terminal octahistidine tag, in SMA lipid particles (SMALPs) (Escherichia coli) (UniProt P31224). In words: negative stain electron microscopy (single particle, 3D reconstruction); protomers to trimer; AcrB SMALPs ~20 ug/mL on carbon-coated grids, 1% uranyl acetate; 6884 singlet particles; refined with C1 and with C3 symmetry.

Experiment [2] shares this target. In words: AUC; protomers to trimer; sedimentation velocity, 0.5 mg/mL AcrB-SMALP, 50 mM Tris pH 8 with 10 mM or 500 mM NaCl, 40,000 rpm, 20 h, 4 °C, c(s) analysis.

T1 sequence (P31224 whole entry): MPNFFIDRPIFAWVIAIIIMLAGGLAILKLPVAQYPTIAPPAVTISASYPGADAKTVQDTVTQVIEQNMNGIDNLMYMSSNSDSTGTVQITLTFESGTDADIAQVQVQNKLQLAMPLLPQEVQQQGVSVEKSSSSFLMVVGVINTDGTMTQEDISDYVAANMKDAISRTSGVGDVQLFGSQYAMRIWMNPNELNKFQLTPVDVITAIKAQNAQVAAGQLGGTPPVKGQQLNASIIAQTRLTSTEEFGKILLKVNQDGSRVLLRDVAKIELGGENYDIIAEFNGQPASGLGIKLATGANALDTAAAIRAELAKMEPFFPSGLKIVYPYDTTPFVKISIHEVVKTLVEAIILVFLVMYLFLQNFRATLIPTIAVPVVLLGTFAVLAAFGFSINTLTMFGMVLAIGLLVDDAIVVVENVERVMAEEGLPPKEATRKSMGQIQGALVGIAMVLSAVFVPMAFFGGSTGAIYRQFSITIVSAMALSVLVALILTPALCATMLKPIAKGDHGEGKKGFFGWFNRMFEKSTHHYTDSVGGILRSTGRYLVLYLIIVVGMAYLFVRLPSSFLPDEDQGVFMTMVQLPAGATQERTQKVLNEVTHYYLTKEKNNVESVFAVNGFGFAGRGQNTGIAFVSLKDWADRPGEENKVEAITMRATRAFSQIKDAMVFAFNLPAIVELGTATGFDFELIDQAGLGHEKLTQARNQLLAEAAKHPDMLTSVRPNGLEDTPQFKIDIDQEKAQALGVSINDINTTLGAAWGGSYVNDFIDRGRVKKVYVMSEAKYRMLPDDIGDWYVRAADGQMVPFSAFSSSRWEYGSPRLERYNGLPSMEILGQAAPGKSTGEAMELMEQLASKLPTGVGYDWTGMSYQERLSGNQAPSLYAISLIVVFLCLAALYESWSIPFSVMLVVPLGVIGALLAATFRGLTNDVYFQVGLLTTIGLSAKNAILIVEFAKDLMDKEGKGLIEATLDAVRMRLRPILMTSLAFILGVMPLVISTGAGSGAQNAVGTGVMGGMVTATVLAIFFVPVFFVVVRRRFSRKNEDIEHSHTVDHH

Broadly, the Kd is the free concentration of one partner at which half of the binding sites on the other are occupied at equilibrium, for simple one-to-one binding. Low values mean a tighter complex, high ones a looser complex. Compound `CCN=c1cc2oc3cc(NCC)c(C)cc3c(-c3ccccc3C(=O)OCC)c-2cc1C` [rhodamine 6G] displayed a dissociation constant (Kd) on AcrB of 52 ± 6.6 nM.

A word on the stoichiometry N: it is the number of molecules, sites or subunits per partner or assembly. Take “Escherichia coli multidrug transporter AcrB bearing a C-terminal octahistidine tag, in SMA lipid particles (SMALPs) (from UniProt P31224 1-1049) (natural protein)”: the stoichiometry N in experiment [1] and in experiment [2] was 3 each time.

Values taken from article PMC4331651, “The use of SMALPs as a novel membrane protein scaffold for structure study by negative stain electron microscopy” (Biochimica et Biophysica Acta, 2015).
